Results as given in article PMC10770727.

Columns and labels:
[1] = target: recombinant human calreticulin (amino acids 18 to 417, N-terminal His-tag) (human) (UniProt P27797)
[2] = target: human recombinant S100A10 (human) (UniProt P60903); assay: SPR; bovine CRT or human recombinant S100A10 amine-coupled to CM5 chips (1000 to 1300 RU), BIACORE 3000; Glu-plasminogen (0-1 uM) or 0.5 uM bovine serum albumin flowed at 50 ul/min; 25 °C; HBS-ET (10 mM Hepes pH 7.4, 150 mM NaCl, 3 mM EDTA, 0.05% Tween-20); apparent KD from steady-state affinity model
Chain of UniProt P60903 (P60903 whole entry): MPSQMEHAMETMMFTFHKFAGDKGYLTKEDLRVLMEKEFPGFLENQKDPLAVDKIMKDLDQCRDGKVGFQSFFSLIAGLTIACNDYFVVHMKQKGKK

[3] = target: bovine liver calreticulin (bovine) (UniProt P52193); assay: as above
Chain of UniProt P52193 (P52193 18-417): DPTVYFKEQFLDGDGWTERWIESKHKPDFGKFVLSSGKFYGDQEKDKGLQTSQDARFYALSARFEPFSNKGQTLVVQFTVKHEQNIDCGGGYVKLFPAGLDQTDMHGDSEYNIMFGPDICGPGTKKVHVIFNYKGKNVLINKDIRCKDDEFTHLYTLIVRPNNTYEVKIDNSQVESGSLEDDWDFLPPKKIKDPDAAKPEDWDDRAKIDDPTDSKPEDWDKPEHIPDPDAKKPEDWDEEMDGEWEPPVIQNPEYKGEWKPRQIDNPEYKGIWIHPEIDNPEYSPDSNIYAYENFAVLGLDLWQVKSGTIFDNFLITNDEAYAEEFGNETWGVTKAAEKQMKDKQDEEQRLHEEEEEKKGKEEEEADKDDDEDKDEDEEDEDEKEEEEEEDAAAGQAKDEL

Chain of UniProt P27797 (P27797 18-417): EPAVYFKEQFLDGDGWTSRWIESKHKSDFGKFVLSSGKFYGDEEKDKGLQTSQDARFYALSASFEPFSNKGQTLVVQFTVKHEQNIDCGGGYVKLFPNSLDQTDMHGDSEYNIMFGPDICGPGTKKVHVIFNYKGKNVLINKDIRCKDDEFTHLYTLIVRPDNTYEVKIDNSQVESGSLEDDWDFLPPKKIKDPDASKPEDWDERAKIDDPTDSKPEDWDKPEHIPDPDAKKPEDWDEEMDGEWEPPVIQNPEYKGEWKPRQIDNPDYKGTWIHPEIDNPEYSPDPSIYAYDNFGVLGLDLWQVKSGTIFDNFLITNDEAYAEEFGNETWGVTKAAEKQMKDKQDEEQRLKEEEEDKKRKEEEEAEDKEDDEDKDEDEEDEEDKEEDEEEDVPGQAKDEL

inhibition by 10 mM ε-ACA of the stimulation of tPA-dependent plasminogen activation by 0.5 μM recombinant human CRT [1]: 80% | Kd [2]: 500 nM | Kd [3]: 1900 nM
Substance: human Glu-plasminogen (natural protein)
